Laboratory results taken from paper PMC6441019, “Prospective discovery of small molecule enhancers of an E3 ligase-substrate interaction” (Nature Communications, 2019).
Blank lines part the entries; values can stand above or below the molecule they belong to. Where a SMILES comes first, the peptide text is derived from it. Where no end group is shown, it is not given here. [ ]: non-standard residue; d: D form. The star is where a group is joined. pS = N[C@@H](COP(=O)(O)O)C(=O)O; Cbz = O=C(OCc1ccccc1)*

Legend:
[1] = molecular target: T1, S33E/S37A mutant β-catenin (Homo sapiens, UniProt P35222+Q9Y297, S33E/S37A); test: β-catenin degradation in HEK293T cells stably expressing S33E/S37A β-catenin; type: cell-based; conditions: for effect of co-treatment on enhancer-induced degradation of S33E/S37A β-catenin: 5 μM MLN4924 or 10 μM MG132, added 30 min before NRX-252114
T1 construct: Full-length β-catenin (Myc/FLAG-tagged; Origene); expressed in transfected cells
T1 sequence (P35222 whole entry S33E/S37A, one chain of several): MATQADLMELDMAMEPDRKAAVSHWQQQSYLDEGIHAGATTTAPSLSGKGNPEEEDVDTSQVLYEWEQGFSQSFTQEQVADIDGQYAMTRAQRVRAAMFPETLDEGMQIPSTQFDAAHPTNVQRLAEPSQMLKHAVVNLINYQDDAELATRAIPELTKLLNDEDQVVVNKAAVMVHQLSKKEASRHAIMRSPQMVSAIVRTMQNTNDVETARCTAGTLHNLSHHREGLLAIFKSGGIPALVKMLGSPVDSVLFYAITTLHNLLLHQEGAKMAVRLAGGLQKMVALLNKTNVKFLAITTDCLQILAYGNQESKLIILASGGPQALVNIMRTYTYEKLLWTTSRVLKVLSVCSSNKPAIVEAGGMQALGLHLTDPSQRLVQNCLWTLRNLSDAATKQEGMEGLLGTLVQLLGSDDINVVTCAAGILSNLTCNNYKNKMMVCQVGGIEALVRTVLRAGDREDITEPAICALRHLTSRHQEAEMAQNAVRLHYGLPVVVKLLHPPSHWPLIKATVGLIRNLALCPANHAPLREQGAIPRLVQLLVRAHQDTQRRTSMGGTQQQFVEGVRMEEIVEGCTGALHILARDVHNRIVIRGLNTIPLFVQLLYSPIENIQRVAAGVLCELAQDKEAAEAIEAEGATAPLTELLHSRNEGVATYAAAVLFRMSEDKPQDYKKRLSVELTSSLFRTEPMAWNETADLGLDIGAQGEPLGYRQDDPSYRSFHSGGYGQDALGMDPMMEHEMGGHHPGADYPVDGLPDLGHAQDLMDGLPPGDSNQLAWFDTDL
T1 sequence (P63208 whole entry partner, one chain of several): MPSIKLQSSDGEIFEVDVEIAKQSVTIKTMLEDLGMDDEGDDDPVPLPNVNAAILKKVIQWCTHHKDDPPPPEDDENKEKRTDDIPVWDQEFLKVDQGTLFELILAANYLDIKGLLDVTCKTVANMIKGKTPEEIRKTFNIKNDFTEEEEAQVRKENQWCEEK
T1 sequence (Q13616 whole entry partner, one chain of several): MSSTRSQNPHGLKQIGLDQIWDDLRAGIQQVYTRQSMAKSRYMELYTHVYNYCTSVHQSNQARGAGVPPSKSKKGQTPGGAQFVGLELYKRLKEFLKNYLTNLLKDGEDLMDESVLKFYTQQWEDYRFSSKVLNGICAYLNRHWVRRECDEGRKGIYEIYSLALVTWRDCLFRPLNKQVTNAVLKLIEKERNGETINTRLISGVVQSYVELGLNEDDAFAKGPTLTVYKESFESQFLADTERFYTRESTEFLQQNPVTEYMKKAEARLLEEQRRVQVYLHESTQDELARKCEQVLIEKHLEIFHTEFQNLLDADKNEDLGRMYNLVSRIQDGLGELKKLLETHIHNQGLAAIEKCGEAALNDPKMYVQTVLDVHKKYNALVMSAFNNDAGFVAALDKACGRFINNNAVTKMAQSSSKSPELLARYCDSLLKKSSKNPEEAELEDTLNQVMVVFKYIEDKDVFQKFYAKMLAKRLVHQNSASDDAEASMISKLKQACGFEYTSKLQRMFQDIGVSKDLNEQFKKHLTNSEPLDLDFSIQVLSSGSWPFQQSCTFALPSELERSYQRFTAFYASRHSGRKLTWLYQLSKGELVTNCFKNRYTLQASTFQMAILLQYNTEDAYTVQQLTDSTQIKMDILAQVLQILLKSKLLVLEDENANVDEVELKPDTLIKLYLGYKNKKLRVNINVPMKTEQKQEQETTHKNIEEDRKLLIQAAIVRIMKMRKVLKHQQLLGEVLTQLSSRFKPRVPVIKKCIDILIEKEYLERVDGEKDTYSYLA
T1 sequence (P62877 whole entry partner, one chain of several): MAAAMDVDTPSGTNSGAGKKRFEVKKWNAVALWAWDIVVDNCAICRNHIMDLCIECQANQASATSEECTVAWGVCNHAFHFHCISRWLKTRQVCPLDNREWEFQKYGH
T1 sequence (Q15843 1-76 partner limits assumed, one chain of several): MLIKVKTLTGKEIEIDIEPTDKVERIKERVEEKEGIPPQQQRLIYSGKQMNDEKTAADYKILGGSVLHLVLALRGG
Experimental: HEK293T cells were plated in a 10 cm dish in regular growth media (DMEM + 10% FBS) and allowed to adhere to the plate overnight. The following day, cells were transfected with S33E/S37 β-catenin using FuGeneHD transfection reagent. Transfected cells were then selected with media containing 700 μg/ml Geneticin. A pooled population of selected cells were used for all described experiments.
HEK293T cells expressing S33E/S37A β-catenin were plated in six-well plates at a density of 9 × 10^5 cells/well. The following day, cells were incubated with compounds diluted in regular growth media to the appropriate concentration. The final concentration of DMSO for all cell treatments was kept at 0.5% or less. Cell treatments with the Nedd8 inhibitor (MLN4924) and the proteasome inhibitor (MG132) were performed at a final concentration of 5 μM and 10 μM respectively. Cycloheximide treatment was performed at a final concentration of 100 μg/ml.

[2] = molecular target: T2, pSer33/Ser37 β-catenin peptide binding to β-TrCP (Homo sapiens, UniProt P35222+Q9Y297); test: TR-FRET peptide binding and cooperativity assay, pSer33/Ser37 peptide; conditions: 500 μM NRX-1532; 300 pM β-TrCP; read-out: KD pS33/S37
T2 construct: titrating BODIPY-FL-labeled β-catenin peptides (residues 17-48) against 300 pM β-TrCP; 6xHis-SMT3 (N, cleaved yes); made in house; host or cells: E. coli (co-expressed with BirA)
T2 sequence (Q9Y297 1-569 isoform Q9Y297-2, one chain of several): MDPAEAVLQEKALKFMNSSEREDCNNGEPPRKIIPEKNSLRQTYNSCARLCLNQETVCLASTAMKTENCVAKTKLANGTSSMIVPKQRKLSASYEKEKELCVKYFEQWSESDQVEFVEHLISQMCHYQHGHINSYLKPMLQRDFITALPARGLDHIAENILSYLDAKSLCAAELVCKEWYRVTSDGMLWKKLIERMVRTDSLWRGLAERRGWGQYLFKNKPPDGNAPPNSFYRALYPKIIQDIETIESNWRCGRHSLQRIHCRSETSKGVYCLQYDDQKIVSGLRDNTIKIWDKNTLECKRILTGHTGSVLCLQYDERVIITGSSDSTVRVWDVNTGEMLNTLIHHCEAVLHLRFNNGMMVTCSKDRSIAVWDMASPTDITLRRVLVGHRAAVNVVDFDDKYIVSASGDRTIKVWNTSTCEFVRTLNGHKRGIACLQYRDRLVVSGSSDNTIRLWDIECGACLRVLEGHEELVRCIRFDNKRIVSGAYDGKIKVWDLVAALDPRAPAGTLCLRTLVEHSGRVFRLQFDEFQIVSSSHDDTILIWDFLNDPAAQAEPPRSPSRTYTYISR
T2 sequence (P63208 whole entry partner, one chain of several, the tested form may be a part): as the sequence (P63208 whole entry partner, one chain of several) above
Experimental: (§1) Compounds were incubated in a 20 μl reaction volume with 300 pM biotinylated β-TrCP/Skp1 preincubated with 1.2 nM terbium-coupled streptavidin (Cisbio) and BODIPY-FL labeled β-catenin peptides (see figure legends for peptide details) in a white 384-well microplate (Perkin Elmer ProxiPlate), using a PBS buffer containing 0.01% Triton X-100 and 2 mM DTT with 2% final DMSO. […] Following 1-h incubation, plates were read for TR-FRET signal after excitation at 320 nm and read at 520 and 620 nm using an EnVision plate reader (Perkin Elmer). TR-FRET signal was calculated using a 520/620 nm ratio. Binding and enhancement data were fit to a standard Hill equation (Y = Bmin + (Bmax − Bmin)(X^h)/(X^h + EC50^h)) in Prism (GraphPad). Errors are standard error of the fit.

[3] = pKa determination (fast UV); type: physicochemical; conditions: methanol:water co-solvent
Experimental: The pKa values were determined using the fast UV (spectrometric) technique. Samples were titrated in triplicate under methanol:water co-solvent conditions (with MeOH:water mixing ratios varied from 1:1 to 1:4) in the pH range 2.0–12.0 at concentrations of 15 to 30 μM and at a temperature of 25 °C. Aqueous pKa values were determined by Yasuda-Shedlovsky extrapolation from the individual determined results.

[4] = molecular target: T3, pSer33/Ser37 β-catenin:β-TrCP interaction (Homo sapiens, UniProt P35222+Q9Y297); test: SPR binding enhancement assay
T3 construct: titrating BODIPY-FL-labeled β-catenin peptides (residues 17-48) against 300 pM β-TrCP; 6xHis-SMT3 (N, cleaved yes); made in house; host or cells: E. coli (co-expressed with BirA)
T3 sequence (Q9Y297 1-569 isoform Q9Y297-2, one chain of several): as the sequence (Q9Y297 1-569 isoform Q9Y297-2, one chain of several) above
T3 sequence (P63208 whole entry partner, one chain of several, the tested form may be a part): as the sequence (P63208 whole entry partner, one chain of several) above
Experimental: SPR binding assays were performed on a GE Healthcare Biacore T200 using a Series B Biacore Sensor Chip SA. […] 333 nM β-TrCP/Skp1 and titrated compound were preincubated and flowed at a rate of 30 μl/min in 10 mM HEPES, 150 mM NaCl, 0.05% Surfactant P20, 1 mM TCEP, and 2% DMSO at pH 7.4 and 20 °C. Engagement of the ternary complex was assessed with a contact and dissociation time of 120 s. […] Errors are standard error of the fit.

[5] = Solubility (qualitative remark); type: physicochemical
[6] = molecular target: T4, pSer33/S37A β-catenin peptide binding to β-TrCP (Homo sapiens, UniProt P35222+Q9Y297, S37A); test: TR-FRET binding enhancement assay, pSer33/S37A peptide
T4 construct: titrating BODIPY-FL-labeled β-catenin peptides (residues 17-48) against 300 pM β-TrCP; 6xHis-SMT3 (N, cleaved yes); made in house; host or cells: E. coli (co-expressed with BirA)
T4 sequence (Q9Y297 1-569 isoform Q9Y297-2, stated change not applied): as the sequence (Q9Y297 1-569 isoform Q9Y297-2, one chain of several) above
T4 sequence (P63208 whole entry partner, the tested form may be a part): as the sequence (P63208 whole entry partner, one chain of several) above
T4 sequence (P35222 17-48 S37A limits assumed): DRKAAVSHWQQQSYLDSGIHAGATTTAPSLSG
Experimental: as §1

[7] = molecular target: T5, S33E/S37A β-catenin peptide binding to β-TrCP (Homo sapiens, UniProt P35222+Q9Y297, S33E/S37A); test: TR-FRET binding enhancement assay, S33E/S37A peptide; conditions: 1% binding saturation
T5 construct: titrating BODIPY-FL-labeled β-catenin peptides (residues 17-48) against 300 pM β-TrCP; 6xHis-SMT3 (N, cleaved yes); made in house; host or cells: E. coli (co-expressed with BirA)
T5 sequence (Q9Y297 1-569 isoform Q9Y297-2, stated change not applied): as the sequence (Q9Y297 1-569 isoform Q9Y297-2, one chain of several) above
T5 sequence (P63208 whole entry partner, the tested form may be a part): as the sequence (P63208 whole entry partner, one chain of several) above
T5 sequence (P35222 17-48 S33E/S37A limits assumed): as the sequence (P35222 17-48 S37A limits assumed) above, with S17E counted along it
Experimental: as §1

[8] = molecular target: T6, endogenous S37A mutant β-catenin (Homo sapiens, UniProt P35222+Q9Y297, S37A); test: Degradation of endogenous S37A β-catenin in TOV-112D cells; type: cell-based
T6 construct: host or cells: TOV-112D
T6 sequence (P35222 whole entry S37A, one chain of several): as the sequence (P35222 whole entry S33E/S37A, one chain of several) above, with E33S counted along it
T6 sequence (P63208 whole entry partner, one chain of several): as the sequence (P63208 whole entry partner, one chain of several) above
T6 sequence (Q13616 whole entry partner, one chain of several): as the sequence (Q13616 whole entry partner, one chain of several) above
T6 sequence (P62877 whole entry partner, one chain of several): as the sequence (P62877 whole entry partner, one chain of several) above
T6 sequence (Q15843 1-76 partner limits assumed, one chain of several): as the sequence (Q15843 1-76 partner limits assumed, one chain of several) above

[9] = molecular target: biotinylated β-TrCP1-avi tag/Skp1 complex (UniProt Q9Y297); test: FRET or BRET; TR-FRET, no compound: BODIPY-FL β-catenin peptide titrated against 300 pM biotinylated β-TrCP/Skp1 on 1.2 nM terbium-streptavidin; PBS, 0.01% Triton X-100, 2 mM DTT, 2% DMSO; 1 h
[10] = molecular target: Myc/FLAG-tagged S33E/S37A phosphomimetic full-length β-catenin (UniProt P35222)
[11] = molecular target: β-TrCP1 (recombinant β-TrCP/Skp1 complex) (UniProt Q9Y297); test: fluorescence polarisation titration; conditions: sites S33
[12] = molecular target: β-TrCP1 (recombinant β-TrCP/Skp1 complex) (UniProt Q9Y297); test: TR-FRET peptide titration, no compound; conditions: reference: Ser33/S37A peptide; sites S33
[13] = molecular target: β-TrCP1 (recombinant β-TrCP/Skp1 complex) (UniProt Q9Y297); test: peptide binding assay, type not said; conditions: reference: pSer33/pSer37 peptide; sites S37
β-TrCP = molecular target: T7, β-TrCP (Homo sapiens, UniProt Q9Y297); test: TR-FRET
T7 chain: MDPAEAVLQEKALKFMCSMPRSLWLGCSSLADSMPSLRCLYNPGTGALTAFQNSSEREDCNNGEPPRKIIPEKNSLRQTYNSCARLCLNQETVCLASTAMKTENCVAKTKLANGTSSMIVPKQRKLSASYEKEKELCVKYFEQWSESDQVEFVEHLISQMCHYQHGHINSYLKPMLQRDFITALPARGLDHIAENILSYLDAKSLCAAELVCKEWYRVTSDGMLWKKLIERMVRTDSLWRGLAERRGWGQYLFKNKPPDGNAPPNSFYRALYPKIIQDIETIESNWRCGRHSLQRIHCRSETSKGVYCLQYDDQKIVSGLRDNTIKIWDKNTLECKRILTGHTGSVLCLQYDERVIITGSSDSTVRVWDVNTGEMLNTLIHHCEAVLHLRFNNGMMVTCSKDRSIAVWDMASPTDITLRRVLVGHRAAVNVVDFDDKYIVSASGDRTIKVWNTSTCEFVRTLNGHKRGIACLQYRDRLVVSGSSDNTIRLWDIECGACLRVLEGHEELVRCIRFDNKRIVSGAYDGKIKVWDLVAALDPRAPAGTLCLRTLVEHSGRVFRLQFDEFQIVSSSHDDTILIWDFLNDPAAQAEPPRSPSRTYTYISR

[14] = molecular target: T8, biotinylated β-TrCP/Skp1 complex (6xHis-SMT3-β-TrCP1-avi tag/Skp1, for TR-FRET) (UniProt Q9Y297-2 1-569; P63208 1-163, biotin on the avi tag (co-expressed with BirA)); test: AlphaScreen or HTRF; TR-FRET: BODIPY-FL-labeled β-catenin peptides titrated against 300 pM biotinylated β-TrCP/Skp1 on 1.2 nM terbium-coupled streptavidin; PBS, 0.01% Triton X-100, 2 mM DTT, 2% DMSO; 1 h; one-site binding model; no compound; conditions: both partners purified
T8 construct: β-TrCP1; Skp1; Held on terbium-coupled streptavidin in the TR-FRET assay; also called β-TrCP complex; source: E. coli, co-expressed from pCDF-Duet1 with BirA and d-biotin, purified (Ni-NTA, ULP1 cleavage, HiTrap SP, SEC); not shown: His6, N-terminal, cleaved; SMT3, N-terminal, cleaved; avi tag, C-terminal, kept
T8 sequence (P63208 whole entry, one chain of several): as the sequence (P63208 whole entry partner, one chain of several) above

Molecule: CC(C)C[C@@H](C=O)NC(=O)[C@H](CC(C)C)NC(=O)[C@H](CC(C)C)NC(=O)OCc1ccccc1 [MG132, reference compound] (Cbz-Leu-Leu-Leu-aldehyde)
effect of co-treatment on enhancer-induced degradation of S33E/S37A β-catenin [1]: completely blocked

Molecule: BODIPY-FL-labeled S33E/S37A phosphomimetic β-catenin peptide (residues 17-48) (from UniProt P35222 17-48)
Kd [9]: > 5000 nM
fold decrease in binding affinity relative to the pSer33/S37A peptide [9]: > 10 fold

Molecule: endogenous β-TrCP of HEK293T cells (from UniProt Q9Y297 1-605) (natural protein)
degradation of stably expressed Myc/FLAG S33E/S37A β-catenin in HEK293T cells, NRX-252114 for 6 h, western blot [10]: 50 µM
degradation of stably expressed Myc/FLAG S33E/S37A β-catenin in HEK293T cells, NRX-252262 for 6 h, western blot [10]: 35 µM

Molecule: β-catenin 17-48 (from UniProt P35222) Ser33/pSer37 peptide
KD ([11]; reference: pSer33/pSer37 peptide): weaker; reference 2 nM

Molecule: β-catenin 17-48 (from UniProt P35222) pSer33/S37A peptide
binding against the reference [12]: stronger

Molecule: β-catenin 17-48 (from UniProt P35222) pSer33/Ser37 peptide
binding against the reference ([11]; reference: non-phosphorylated peptide (Ser33/Ser37)): stronger

Molecule: β-catenin (from UniProt P35222) pSer33/S37A peptide
binding against the reference [13]: weaker

B1: β-catenin peptide (protein)
chain: ATQADLMELDMAMEPDRKAAVSHWQQQSYLDSGIHSGATTTAPSLSGKGNPEEEDVDTSQVLYEWEQGFSQSFTQEQVADIDGQYAMTRAQRVRAAMFPETLDEGMQIPSTQFDAAHPTNVQRLAEPSQMLKHAVVNLINYQDDAELATRAIPELTKLLNDEDQVVVNKAAVMVHQLSKKEASRHAIMRSPQMVSAIVRTMQNTNDVETARCTAGTLHNLSHHREGLLAIFKSGGIPALVKMLGSPVDSVLFYAITTLHNLLLHQEGAKMAVRLAGGLQKMVALLNKTNVKFLAITTDCLQILAYGNQESKLIILASGGPQALVNIMRTYTYEKLLWTTSRVLKVLSVCSSNKPAIVEAGGMQALGLHLTDPSQRLVQNCLWTLRNLSDAATKQEGMEGLLGTLVQLLGSDDINVVTCAAGILSNLTCNNYKNKMMVCQVGGIEALVRTVLRAGDREDITEPAICALRHLTSRHQEAEMAQNAVRLHYGLPVVVKLLHPPSHWPLIKATVGLIRNLALCPANHAPLREQGAIPRLVQLLVRAHQDTQRRTSMGGTQQQFVEGVRMEEIVEGCTGALHILARDVHNRIVIRGLNTIPLFVQLLYSPIENIQRVAAGVLCELAQDKEAAEAIEAEGATAPLTELLHSRNEGVATYAAAVLFRMSEDKPQDYKKRLSVELTSSLFRTEPMAWNETADLGLDIGAQGEPLGYRQDDPSYRSFHSGGYGQDALGMDPMMEHEMGGHHPGADYPVDGLPDLGHAQDLMDGLPPGDSNQLAWFDTDL
modifications: 20 µM NRX-252114
Kd (β-TrCP): 180 nM

B2: BODIPY-FL-labeled pSer33/S37C β-catenin peptide (residues 17-48) (peptide)
peptide: Ac-CDRKAAVSHWQQQSYLD[pS]GIHCGATTTAPSLSG
modifications: cysteine pairing not given here; also: BODIPY-FL label, site not given here
notes: added N-terminal cysteine of the peptide list, not part of β-catenin 17-48; as the printed 17-48 peptide with this change; also called pSer33/Cys37; pS33/S37C
Kd [14]: 154 nM

B3: BODIPY-FL-labeled pSer33/S37F β-catenin peptide (residues 17-48) (peptide)
peptide: Ac-CDRKAAVSHWQQQSYLD[pS]GIHFGATTTAPSLSG
modifications: also: BODIPY-FL label, site not given here
notes: added N-terminal cysteine of the peptide list, not part of β-catenin 17-48; as the printed 17-48 peptide with this change; also called pSer33/Phe37; pS33/S37F
Kd [14]: 23 nM

Continued, values first:

effect of co-treatment on enhancer-induced degradation of S33E/S37A β-catenin [1]: completely blocked
Molecule: NS(=O)(=O)OC[C@@H]1C[C@@H](n2ccc3c(N[C@H]4CCc5ccccc54)ncnc32)C[C@@H]1O [MLN4924, reference compound]

Kd [2]: 68 nM
pKa [3]: 5.6
EC50 [4]: 129000 ± 33000 nM
Molecule: O=C(Nc1cccc(-c2ccn[nH]2)c1)c1ccc(C(F)(F)F)[nH]c1=O [NRX-1532]

solubility relative to NRX-1532 [5]: more soluble
Molecule: O=C(Nc1cccc(-c2nnn[nH]2)c1)c1ccc(C(F)(F)F)[nH]c1=O [NRX-1933]

EC50 [6]: 163 ± 6 nM
EC50 [7]: 6700 ± 700 nM
Molecule: CN(C)C(=O)c1cccc(NC(=O)c2c(Sc3c(Cl)cccc3Cl)cc(C(F)(F)F)[nH]c2=O)c1 [NRX-103095]

concentration at which degradation of S33E/S37A mutant β-catenin starts ([1]; HEK293T stable line, 6 h, western): ~ 35 μM
degradation of endogenous S37A mutant β-catenin [8]: did not induce degradation
Molecule: COc1cc2c(cc1OC)CN(C(=O)c1c(Sc3c(Cl)cccc3Cl)cc(C(F)(F)F)[nH]c1=O)C2 [NRX-252262]
